Measured values published in patent US20180015177A1 (Genentech, published 2018).
Changes are numbered by the printed parent chain. “And” between values parts separate entries of the source, which are not always exact repeats. Identical values can stand only once.

T1: human Ly6E, N-terminal gD-tagged, stably expressed on PC3 cells (human, UniProt Q16553 21-101)
T1 construct: GPI-linked protein on cells; also called hu Ly6E; human Ly6E transfected PC3 cells; not shown: N-terminal gD tag of the retroviral vector
T1 sequence: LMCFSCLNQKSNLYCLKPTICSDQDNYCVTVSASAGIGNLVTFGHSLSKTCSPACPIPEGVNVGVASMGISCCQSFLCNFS

B1: humanized 9B12 variant v1 (antibody, V domains shown)
VH: EVQLVESGPALVKPTQTLTLTCTFSGFSLTGYSVNWIRQPPGKALEWLGMIWGDGSTDYNSALKSRLTISKDTSKNQVVLTMTNMDPVDTATYYCARDYYFNYASWFAYWGQGTLVTVSS
VL: DIQMTQSPSSLSASVGDRVTITCSASQGISNYLNWYQQKPGKAPKLLIYYTSNLHSGVPSRFSGSGSGTDFTLTISSLQPEDFATYYCQQYSELPWTFGQGTKVEIK
notes: IgG. k1 graft / VH2 graft + 49
B2: humanized 9B12 variant v8 (antibody, V domains shown)
VH: EVQLVESGGGLVQPGGSLRLSCAASGFSLTGYSVNWVRQAPGKGLEWVGMIWGDGSTDYNSALKSRFTISRDNSKNTLYLQMNSLRAEDTAVYYCARDYYFNYASWFAYWGQGTLVTVSS
VL: B1 VL with A43T, P44V
notes: IgG. k1 graft 43+44 / VH3 graft; Residue change derived
B3: humanized 9B12 variant v18 (antibody, V domains shown)
VH: B1 VH with F24V, T73N, N76S
VL: B1 VL with A43T, P44V, F71Y
notes: IgG. k1 graft 43+44+71 / VH2 graft + 24 + 49 + 73 + 76; Residue changes derived
B4: humanized 9B12 variant v13 (antibody, V domains shown)
VH: B2 VH
VL: B1 VL with A43T, P44V, F71Y
notes: IgG. k1 graft 43+44+71 / VH3 graft
B5: humanized 9B12 variant v21 (antibody, V domains shown)
VH: B1 VH with F24V, I37V
VL: B1 VL with F71Y
notes: IgG. k1 graft + 71 / VH2 graft + 24 + 37 + 49; Residue changes derived
B6: humanized 9B12 variant v5 (antibody, V domains shown)
VH: B2 VH with R71K, L78V
VL: B1 VL
notes: IgG. k1 graft / VH3 graft + 71 + 78; Residue changes derived
B7: humanized 9B12 variant v17 (antibody, V domains shown)
VH: B1 VH with F24V, T73N
VL: B1 VL with A43T, P44V, F71Y
notes: IgG. k1 graft 43+44+71 / VH2 graft + 24 + 49 + 73; Residue change derived
B8: humanized 9B12 variant v7 (antibody, V domains shown)
VH: B1 VH with F24V
VL: B1 VL with A43T, P44V
notes: IgG. k1 graft 43+44 / VH2 graft + 24 + 49; Residue change derived
B9: humanized 9B12 variant v23 (antibody, V domains shown)
VH: B1 VH with F24V, T73N, N76S
VL: B1 VL with F71Y
notes: IgG. k1 graft + 71 / VH2 graft + 24 + 49 + 73 + 76; Residue changes derived
B10: humanized 9B12 variant v22 (antibody, V domains shown)
VH: B1 VH with F24V, T73N
VL: B1 VL with F71Y
notes: IgG. k1 graft + 71 / VH2 graft + 24 + 49 + 73; Residue changes derived
B11: humanized 9B12 variant v6 (antibody, V domains shown)
VH: B1 VH
VL: B1 VL with A43T, P44V
notes: IgG. k1 graft 43+44 / VH2 graft + 49; Residue changes derived
B12: humanized 9B12 variant v4 (antibody, V domains shown)
VH: B2 VH with A24V
VL: B1 VL
notes: IgG. k1 graft / VH3 graft + 24
B13: humanized 9B12 variant v20 (antibody, V domains shown)
VH: B2 VH with A24V, V48L, F67L, R71K, N76S, L78V
VL: B1 VL with A43T, P44V, F71Y
notes: IgG. k1 graft 43+44+71 / VH3 graft + 24 + 48 + 67 + 71 + 76 + 78; Residue changes derived
B14: humanized 9B12 variant v25 (antibody, V domains shown)
VH: B2 VH with A24V, V48L, F67L, R71K, N76S, L78V
VL: B1 VL with F71Y
notes: IgG. k1 graft + 71 / VH3 graft + 24 + 48 + 67 + 71 + 76 + 78; Residue changes derived
B15: humanized 9B12 variant v15 (antibody, V domains shown)
VH: B2 VH with R71K, L78V
VL: B1 VL with A43T, P44V, F71Y
notes: IgG. k1 graft 43+44+71 / VH3 graft + 71 + 78; Residue changes derived
B16: humanized 9B12 variant v19 (antibody, V domains shown)
VH: B1 VH with F24V, I37V, T73N, N76S
VL: B1 VL with A43T, P44V, F71Y
notes: IgG. k1 graft 43+44+71 / VH2 graft + 24 + 37 + 49 + 73 + 76; Residue changes derived
B17: humanized 9B12 variant v11 (antibody, V domains shown)
VH: B1 VH
VL: B1 VL with A43T, P44V, F71Y
notes: IgG. k1 graft 43+44+71 / VH2 graft + 49; Residue change derived
B18: humanized 9B12 variant v9 (antibody, V domains shown)
VH: B2 VH with A24V
VL: B1 VL with A43T, P44V
notes: IgG. k1 graft 43+44 / VH3 graft + 24; Residue changes derived
B19: humanized 9B12 variant v2 (antibody, V domains shown)
VH: B1 VH with F24V
VL: B1 VL
notes: IgG. k1 graft / VH2 graft + 24 + 49; Residue changes derived against v12
B20: humanized 9B12 variant v16 (antibody, V domains shown)
VH: B1 VH with F24V, I37V
VL: B1 VL with A43T, P44V, F71Y
notes: IgG. k1 graft 43+44+71 / VH2 graft + 24 + 37 + 49; Residue change derived
B21: humanized 9B12 variant v14 (antibody, V domains shown)
VH: B2 VH with A24V
VL: B1 VL with A43T, P44V, F71Y
notes: IgG. k1 graft 43+44+71 / VH3 graft + 24; Residue change derived
B22: humanized 9B12 variant v10 (antibody, V domains shown)
VH: B2 VH with R71K, L78V
VL: B1 VL with A43T, P44V
notes: IgG. k1 graft 43+44 / VH3 graft + 71 + 78; Residue changes derived
B23: humanized 9B12 variant v3 (antibody, V domains shown)
VH: B2 VH
VL: B1 VL
notes: Light chain changes derived
B24: humanized 9B12 variant v24 (antibody, V domains shown)
VH: B1 VH with F24V, I37V, T73N, N76S
VL: B1 VL with F71Y
notes: IgG. k1 graft + 71 / VH2 graft + 24 + 37 + 49 + 73 + 76; Residue changes derived

Legend:
[1] = target: Cynomolgus monkey Ly6E, N-terminal gD-tagged, stably expressed on PC3 cells (cynomolgus monkey); test: Scatchard analysis on PC3 cells expressing gD-tagged cyno Ly6E (binding to the gD tag)
[2] = target: human Ly6E, N-terminal gD-tagged, stably expressed on PC3 cells (human) (UniProt Q16553); test: Scatchard analysis on PC3 cells expressing gD-tagged human Ly6E (binding to the gD tag)
[3] = target: T1, human Ly6E, N-terminal gD-tagged, …; test: cell-based Ly6E competitive binding assay on human Ly6E PC3 cells; competitor mouse 9B12
Experimental: (§1) Cell-based Ly6E competitive binding assay—Cultured human Ly6E transfected PC3 cells were harvested with 5 mM EDTA containing PBS. Cells were washed with PBS and added onto a 384-well high binding plate (Meso Scale Discovery Technology (MSD); Gaithersburg, Md.). The plate was kept at room temperature for 1 hr to allow cells to adhere to the plate as described (See Lu, Y., Wong, W. L. & Meng, Y. G. A high throughput electrochemiluminescent cell-binding assay for therapeutic anti-CD20 antibody selection. Journal of Immunological Methods 314, 74-79 (2006)). The plate with cells was blocked with fetal bovine serum containing PBS for 1 hr and then cooled on ice. Serially diluted antibody variant samples were mixed with equal volume of fixed concentration of mouse 9B12 Ab. The mixtures were added onto the plates and incubated at 4° C. with gentle shaking for 1 hr.
(§2) The plate was then washed with cold PBS and an anti-mouse IgG Fc specific Ab (Jackson ImmunoReserach; West Grove, Pa.) labeled with sulfo-ruthenium tag was added to the plate as the detection reagent. The plate was incubated at 4° C. with gentle shaking for 1 hr. After incubation the plate was washed again, and MSD read buffer (MSD; Gaithersburg, Md.) was added onto the wells. The plate was read with a MSD SectorÒ imager 6000. The data was graphed and analyzed using KaleidaGraph software (Synergy Software; Reading, Pa.) to determine IC₅₀ values.

[4] = target: T1, human Ly6E, N-terminal gD-tagged, …; test: cell-based competitive binding on human Ly6E PC3 cells; competitor mouse 9B12
Experimental: as §1, §2

Row | Molecule | IC50 [4] | other results
1 | anti-gD mAb (antibody) |  | Kd [1]: 2 nM; Sites/Cell [1]: 53000 sites/cell; Kd [2]: 1.1 nM; Sites/Cell [2]: 13000 sites/cell
2 | B1 |  | binding result [3]: no binding
3 | B2 |  | binding result [3]: no binding
4 | B3 | 22 nM | 
5 | B4 |  | binding result [3]: no binding
6 | B5 | 82 nM | 
7 | B6 | 70 nM | 
8 | B7 | 29 nM | 
9 | B8 | 24 nM and 36 nM | 
10 | B9 | 54 nM | 
11 | B10 | 59 nM | 
12 | B11 |  | binding result [3]: no binding
13 | B12 | 98 nM and 70 nM | 
14 | B13 | 26 nM | 
15 | B14 | 56 nM | 
16 | B15 | 42 nM and 52 nM | 
17 | B16 | 28 nM | 
18 | B17 |  | binding result [3]: no binding
19 | B18 | 34 nM and 44 nM | 
20 | B19 | 28 nM and 37 nM | 
21 | B20 | 27 nM | 
22 | B21 | 39 nM and 56 nM | 
23 | B22 | 61 nM | 
24 | B23 |  | binding result [3]: no binding
25 | B24 | 53 nM | 
